23 molecules from patent US20260199463A1 (CENTURY THERAPEUTICS, published 2026) can be followed below.

The target in assay [1] is T1, Nectin4-HIS protein (AcroBiosystems #NE4-H52H3) (UniProt Q96NY8 32-349).
T1 construct: Bought protein; also called Nectin4 protein; recombinant Nectin4-HIS protein; not shown: His tag
T1 sequence (looked up): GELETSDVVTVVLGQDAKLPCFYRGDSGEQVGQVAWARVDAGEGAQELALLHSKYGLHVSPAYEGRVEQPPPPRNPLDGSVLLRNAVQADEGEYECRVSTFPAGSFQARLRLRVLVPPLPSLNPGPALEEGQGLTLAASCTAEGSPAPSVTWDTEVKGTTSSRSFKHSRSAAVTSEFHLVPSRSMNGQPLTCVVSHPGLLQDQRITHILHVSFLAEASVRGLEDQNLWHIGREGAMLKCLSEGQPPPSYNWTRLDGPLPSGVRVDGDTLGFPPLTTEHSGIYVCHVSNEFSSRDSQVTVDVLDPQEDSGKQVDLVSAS
Kind of assay: flow cytometry, Nectin4-HIS at 2 ug/ml on CAR-transduced Nurkat cells.

Assay [2] deals with T1, Nectin4-HIS protein (AcroBiosystems …). The experiment in a line: ELISA, periplasmic extract on plate-bound Nectin4 (1 ug/mL), anti-Flag:HRP detection. The method, then:
ELISA: 8 Maxisorp plates were coated with 100 uL/well Nectin4 at 1 ug/mL overnight at 4° C. Plates were emptied, and 200 uL/well SuperBlock was added to all plates, and incubated for 1 hour at RT. The plate was washed 1× with TBST on the Aquamax plate washer. 60 μL of anti-Flag:HRP (1:10,000 in PBS-T with 1:10 Superblock) was added per well to a V-bottom plate for each library screening plate. 60 uL/well PPE was added per well to the V-bottom plates and incubated for 1 hour at RT. 50 μL of the PPE/Anti-Flag mix was transferred to each ELISA plate and incubated for 1 hour at RT. The plate was washed 3× with TBST on the Aquamax plate washer. 50 uL/well TMB Ultra solution was added and incubated at RT for 30 minutes, until the wells appeared blue. 50 uL/well stop solution was added and absorbance at 450 nm was read on the Spectramax i3× plate reader. 54 unique clones were identified from the two libraries. A subset of 20 clones was selected from V2S and V2 M for cloning into P201 (SEQ ID Nos. 111-130).
(In general: In an ELISA, binding on a coated surface is turned into a signal by an enzyme label.)

Positions count from the first letter of the chain named.

B1: MARS SP_NEC_M_44_P3109_CD8 Hinge_CD28 tm_41BB_CD3Z (other)
chain: EVQLLESGGGLVQPGGSLRLSCAASGRTLSSYAMGWYRQAPGKERELVSSISGSGGSTRYADSVKGRFTISRDNSKNTLYLQMNSLKPEDTAVYYCAVYILELAPGAEYWGQGTQVTVSSTTTPAPRPPTPAPTIASQPLSLRPEACRPAAGGAVHTRGLDFACDFWVLVVVGGVLACYSLLVTVAFIIFWVKRGRKKLLYIFKQPFMRPVQTTQEEDGCSCRFPEEEEGGCELRVKFSRSADAPAYQQGQNQLYNELNLGRREEYDVLDKRRGRDPEMGGKPRRKNPQEGLYNELQKDKMAEAYSEIGMKGERRRGKGHDGLYQGLSTATKDTYDALHMQALPPR
notes: Chimeric antigen receptor on transduced Nurkat cells or primary T cells
Take B1: the binding result in assay [1] was “binds”.

B2: NEC_M_21 (VHH)
VHH: EVQLLESGGGLVQPGGSLRLSCAASGLTFSSNAMGWYRQAPGKERELVSSISGSGGSTNYADSVKGRFTISRDNSKNTLYLQMNSLKPEDTAVYYCAAEIATYYDFADYWGQGTQVTVSS
notes: Periplasmic extract (PPE) of a panning clone
On to B2, for which the binding result in assay [2] is given as “binds”.

B3: MARS SP_NEC_S_31_P3113_CD8 Hinge_CD28 tm_41BB_CD3Z (other)
chain: EVQLLESGGGLVQPGGSLRLSCAASGFTYSSYAMGWYRQAPGKERELVSSISGSGGSTRYADSVKGRFTISRDNSKNTLYLQMNSLKPEDTAVYYCAVAIGVGDYWGQGTQVTVSSTTTPAPRPPTPAPTIASQPLSLRPEACRPAAGGAVHTRGLDFACDFWVLVVVGGVLACYSLLVTVAFIIFWVKRGRKKLLYIFKQPFMRPVQTTQEEDGCSCRFPEEEEGGCELRVKFSRSADAPAYQQGQNQLYNELNLGRREEYDVLDKRRGRDPEMGGKPRRKNPQEGLYNELQKDKMAEAYSEIGMKGERRRGKGHDGLYQGLSTATKDTYDALHMQALPPR
notes: as for B1
Take B3: in assay [1], the binding result was “binds”.

B4: MARS SP_NEC_M_46_P3110_CD8 Hinge_CD28 tm_41BB_CD3Z (other)
chain: EVQLLESGGGLVQPGGSLRLSCAASGYTFSDYAMGWYRQAPGKERELVSSISGSGGSTRYADSVKGRFTISRDNSKNTLYLQMNSLKPEDTAVYYCAAVIRQPSTGFYEYWGQGTQVTVSSTTTPAPRPPTPAPTIASQPLSLRPEACRPAAGGAVHTRGLDFACDFWVLVVVGGVLACYSLLVTVAFIIFWVKRGRKKLLYIFKQPFMRPVQTTQEEDGCSCRFPEEEEGGCELRVKFSRSADAPAYQQGQNQLYNELNLGRREEYDVLDKRRGRDPEMGGKPRRKNPQEGLYNELQKDKMAEAYSEIGMKGERRRGKGHDGLYQGLSTATKDTYDALHMQALPPR
notes: as for B1
In the case of B4, in assay [1], the binding result is “binds”.

B5: NEC_M_8 (VHH)
VHH: EVQLLESGGGLVQPGGSLRLSCAASGFTFSSYAMGWYRQAPGKEREFVSSISGSGGLTRYADSVKGRFTISRDNSKNTLYLQMNSLKPEDTAVYYCAVTTGYQGGVYDYWGQGTQVTVSS
notes: as for B2
For the molecule B5, the binding result in assay [2] is “binds”.

B6: NEC_S_2 (VHH)
VHH: EVQLLESGGGLVQPGGSLRLSCAASGSTFSSNAMGWYRQAPGKERELVSSISGSGGSTRYADSVKGRFTISRDNSKNTLYLQMNSLKPEDTAVYYCASYVLYLREYWGQGTQVTVSS
notes: as for B2
Take B6: in assay [2], the binding result was “binds”.

B7: NEC_M_46 (VHH)
VHH: EVQLLESGGGLVQPGGSLRLSCAASGYTFSDYAMGWYRQAPGKERELVSSISGSGGSTRYADSVKGRFTISRDNSKNTLYLQMNSLKPEDTAVYYCAAVIRQPSTGFYEYWGQGTQVTVSS
notes: as for B2
In the case of B7, the binding result in assay [2] is “binds”.

B8: NEC_S_5 (VHH)
VHH: EVQLLESGGGLVQPGGSLRLSCAASGLTFRYNAMGWYRQAPGKEREFVSAISGSGGGTYYADSVKGRFTISRDNSKNTLYLQMNSLKPEDTAVYYCAAEGLYDYWGQGTQVTVSS
notes: as for B2
As to B8, the binding result in assay [2] is reported as “binds”.

B9: NEC_S_11 (VHH)
VHH: EVQLLESGGGLVQPGGSLRLSCAASGLTSSGYAMGWYRQAPGKERELVSSISSSGGLTHYADSVKGRFTISRDNSKNTLYLQMNSLKPEDTAVYYCDADIAYTGADYWGQGTQVTVSS
notes: as for B2
In the case of B9, the binding result in assay [2] was “binds”.

B10: NEC_M_84 (VHH)
VHH: EVQLLESGGGLVQPGGSLRLSCAASGFAFSIDAMGWYRQAPGKEREGVSSISGSGGLTRYADSVKGRFTISRDNSKNTLYLQMNSLKPEDTAVYYCDTAVLTGYSEAFDYWGQGTQVTVSS
notes: as for B2
Regarding B10, in assay [2], the binding result was “binds”.

B11: NEC_S_55 (VHH)
VHH: EVQLLESGGGLVQPGGSLRLSCAASGFTLSSYAMGWYRQAPGKERELVSSISGSGGSTRYADSVKGRFTISRDNSKNTLYLQMNSLKPEDTAVYYCAAYIGGDYLGQGTQVTVSS
notes: as for B2
Regarding B11, the binding result in assay [2] was “binds”.

B12: NEC_S_16 (VHH)
VHH: EVQLLESGGGLVQPGGSLRLSCAASGFTFSDYYMGWYRQAPGKEREFVSAISSTGGSPYYADSVKGRFTISRDNSKNTLYLQMNSLKPEDTAVYYCAVEVPYDYWGQGTQVTVSS
notes: as for B2
B12: in assay [2], the binding result is given as “binds”.

B13: NEC_S_64 (VHH)
VHH: B12 VHH with T28A, F29Y, D31S, T54S, S57G, P58T, V100L, P101T, D103N
notes: as for B2
As to B13, the binding result in assay [2] is “binds”.

B14: NEC_M_82 (VHH)
VHH: EVQLLESGGGLVQPGGSLRLSCAASGFTYSDYAMGWYRQAPGKERELVSAISSYGGVTNYADSVKGRFTISRDNSKNTLYLQMNSLKPEDTAVYYCAAYGALSIRGYDYWGQGTQVTVSS
notes: as for B2
With B14, the binding result in assay [2] is “binds”.

B15: NEC_M_29 (VHH)
VHH: EVQLLESGGGLVQPGGSLRLSCAASGFTYTSYVMGWYRQAPGKERELVSAIYGSAGSGYYADSVKGRFTISRDNSKNTLYLQMNSLKPEDTAVYYCARVTTTTHLWSAEYWGQGTQVTVSS
notes: as for B2
Consider B15, for which the binding result in assay [2] is reported as “binds”.

B16: NEC_M_17 (VHH)
VHH: EVQLLESGGGLVQPGGSLRLSCAASGFTYSGYAMGWYRQAPGKERELVSSISGSGTLTSYADSVKGRFTISRDNSKNTLYLQMNSLKPEDTAVYYCDVDIPVGDATTVGDYWGQGTQVTVSS
notes: as for B2
As for B16, the binding result in assay [2] is listed as “binds”.

B17: NEC_S_31 (VHH)
VHH: EVQLLESGGGLVQPGGSLRLSCAASGFTYSSYAMGWYRQAPGKERELVSSISGSGGSTRYADSVKGRFTISRDNSKNTLYLQMNSLKPEDTAVYYCAVAIGVGDYWGQGTQVTVSS
notes: as for B2
As to B17, the binding result in assay [2] is on record as “binds”.

B18: NEC_S_56 (VHH)
VHH: B17 VHH with F27L, Y29L, Y37F, A99D, G101R, V102L, G103T
notes: as for B2
For the molecule B18, the binding result in assay [2] is on record as “binds”.

B19: MARS SP_NEC_M_5_P3106_CD8 Hinge_CD28 tm_41BB_CD3Z (other)
chain: EVQLLESGGGLVQPGGSLRLSCAASGLSFSSYSMGWYRQAPGKEREFVSAISGSSGSTNYADSVKGRFTISRDNSKNTLYLQMNSLKPEDTAVYYCAAEHRVTTSGVFYDYWGQGTQVTVSSTTTPAPRPPTPAPTIASQPLSLRPEACRPAAGGAVHTRGLDFACDFWVLVVVGGVLACYSLLVTVAFIIFWVKRGRKKLLYIFKQPFMRPVQTTQEEDGCSCRFPEEEEGGCELRVKFSRSADAPAYQQGQNQLYNELNLGRREEYDVLDKRRGRDPEMGGKPRRKNPQEGLYNELQKDKMAEAYSEIGMKGERRRGKGHDGLYQGLSTATKDTYDALHMQALPPR
notes: as for B1
As for B19, the binding result in assay [1] was “binds”.

B20: NEC_M_66 (VHH)
VHH: EVQLLESGGGLVQPGGSLRLSCAASGFAYSSYSIGWYRQAPGKERELVSAISGSGGSSRYADSVKGRFTISRDNSKNTLYLQMNSLKPEDTAVYYCAAIAYVYTSTARNYWGQGTQVTVSS
notes: as for B2
With B20, the binding result in assay [2] is given as “binds”.

B21: NEC_M_44 (VHH)
VHH: EVQLLESGGGLVQPGGSLRLSCAASGRTLSSYAMGWYRQAPGKERELVSSISGSGGSTRYADSVKGRFTISRDNSKNTLYLQMNSLKPEDTAVYYCAVYILELAPGAEYWGQGTQVTVSS
notes: as for B2
B21: in assay [2], the binding result is “binds”.

B22: NEC_M_5 (VHH)
VHH: EVQLLESGGGLVQPGGSLRLSCAASGLSFSSYSMGWYRQAPGKEREFVSAISGSSGSTNYADSVKGRFTISRDNSKNTLYLQMNSLKPEDTAVYYCAAEHRVTTSGVFYDYWGQGTQVTVSS
notes: as for B2
Consider B22, for which the binding result in assay [2] is “binds”.

B23: MARS SP_NEC_M_8_P3107_CD8 Hinge_CD28 tm_41BB_CD3Z (other)
chain: EVQLLESGGGLVQPGGSLRLSCAASGFTFSSYAMGWYRQAPGKEREFVSSISGSGGLTRYADSVKGRFTISRDNSKNTLYLQMNSLKPEDTAVYYCAVTTGYQGGVYDYWGQGTQVTVSSTTTPAPRPPTPAPTIASQPLSLRPEACRPAAGGAVHTRGLDFACDFWVLVVVGGVLACYSLLVTVAFIIFWVKRGRKKLLYIFKQPFMRPVQTTQEEDGCSCRFPEEEEGGCELRVKFSRSADAPAYQQGQNQLYNELNLGRREEYDVLDKRRGRDPEMGGKPRRKNPQEGLYNELQKDKMAEAYSEIGMKGERRRGKGHDGLYQGLSTATKDTYDALHMQALPPR
notes: as for B1
For the molecule B23, the binding result in assay [1] was “binds”.
